Legend:
S. aureus Newman cells [1] = assay: Turbidity reduction assay; assay type: cell-based, Staphylococcus aureus
Method: The turbidity reduction assay measures a decrease in optical density of a bacterial suspension due to lysis of the target bacteria by a lytic protein. The assays were performed in a 96-well dish format essentially as described previously (Donovan et al. 2006, supra). In order to reduce the variability of the assay, frozen stocks of S. aureus Newman substrate cells were prepared in a large batch as described by Becker et al. (2009b, supra). Immediately prior to the assay, the frozen cells were thawed, washed, and resuspended in the desired assay buffer such that when 100 μl of cell suspension were added to 100 μl of lysis buffer+/−protein, the final suspension has an OD600nm of ˜1.0.
Protein constructs were assayed at a concentration of 1 μM, and the assay was performed at room temperature, measuring the OD600nm at 1 min intervals for 45 min. Buffer without enzyme served as the control. The steepest slopes of the resulting lysis curves, which correspond to the lytic activities of the proteins, were determined by a sliding window over each group of three consecutive time points for the entire 45 min period. Specific activities were expressed as ΔOD600nm/min/μM, and the “no enzyme” control value was subtracted from each experimental value.
In order to determine the effect of salt concentration on lytic activity, turbidity reduction assays were performed in 10 mM Tris buffers at pH 7.5 with varying NaCl concentrations between 0 mM and 600 mM. Accordingly, the influence of pH was determined by using a series of different buffers with pH values ranging from 3.5 to 10.0. Citrate buffers were used for pH 3.5, 4.5, 5.5, and 6.0, MOPS buffers for pH 6.5, 7.0, and 7.5, Tris buffers for pH 8.0 and 9.0, and Carbonate/bicarbonate buffer for pH 10.0. The concentration of the buffer substance in all buffers used was 20 mM, and the NaCl concentration was 200 mM. To test the effect of bivalent metal ions, assays were performed in 10 mM Tris, 200 mM NaCl, pH 7.5 supplemented with MgCl2, MnCl2, or CaCl2 at different concentrations (0.1 mM, 1 mM, 10 mM), buffer without metal ions serving as control.

S. aureus Tanji 19 = assay: Plate lysis assay; assay type: cell-based; details: 100 pmoles and 2-fold serial dilutions spotted on bacterial lawns
Method: (§1) Purified proteins (100 pmoles in a 10 μl volume and five two-fold serial dilutions thereof) were spotted onto a freshly spread lawn of log phase staphylococcal cells (OD600 nm of 0.4-0.6, diluted ¼ before plating) that had air dried for 15 min on gridded TSA (tryptic soy agar) plates. The spotted plates were air dried for 10 min in a laminar flow hood and incubated overnight at 37° C. Cleared spots indicating cell lysis were scored within 24 hours of plating the cells.
(§2) The φSH2 full length enzyme and the A1 construct were further tested in plate lysis assays against a set of different staphylococcal strains, including MRSA strains (NRS 382-385), mastitis isolates (305, Tanji 1-26), and coagulase negative staphylococci (non S. aureus) (Table 2). The same molar amounts of both proteins (ranging from 100 pmoles to 3.125 pmoles, in a volume of 10 ul) were spotted onto lawns of mid log phase cells of the respective strains, and the plates were analyzed for lysis zones the next day.

S. aureus NRS 385 = assay: Plate lysis assay; assay type: cell-based; details: S. aureus NRS 385 (MRSA); 100 pmoles and 2-fold serial dilutions spotted on bacterial lawns
Method: as §1, §2

S. aureus Tanji 1 = assay: Plate lysis assay; assay type: cell-based; details: 100 pmoles and 2-fold serial dilutions spotted on bacterial lawns
Method: as §1, §2

S. chromogenes = assay: Plate lysis assay; assay type: cell-based; details: 100 pmoles and 2-fold serial dilutions spotted on bacterial lawns
Method: as §1, §2

S. epidermidis = assay: Plate lysis assay; assay type: cell-based; details: 100 pmoles and 2-fold serial dilutions spotted on bacterial lawns
Method: as §1, §2

S. xylocus = assay: Plate lysis assay; assay type: cell-based; details: 100 pmoles and 2-fold serial dilutions spotted on bacterial lawns
Method: as §1, §2

S. aureus 305 = assay: Plate lysis assay; assay type: cell-based; details: 100 pmoles and 2-fold serial dilutions spotted on bacterial lawns
Method: as §1, §2

S. aureus Tanji 20 = assay: Plate lysis assay; assay type: cell-based; details: 100 pmoles and 2-fold serial dilutions spotted on bacterial lawns
Method: as §1, §2

S. hyicus = assay: Plate lysis assay; assay type: cell-based
Method: as §1, §2

S. warneri = assay: Plate lysis assay; assay type: cell-based; details: 100 pmoles and 2-fold serial dilutions spotted on bacterial lawns
Method: as §1, §2

S. aureus NRS 384 = assay: Plate lysis assay; assay type: cell-based; details: S. aureus NRS 384 (MRSA); 100 pmoles and 2-fold serial dilutions spotted on bacterial lawns
Method: as §1, §2

S. aureus NRS 383 = assay: Plate lysis assay; assay type: cell-based; details: S. aureus NRS 383 (MRSA); 100 pmoles and 2-fold serial dilutions spotted on bacterial lawns
Method: as §1, §2

S. aureus Newman = assay: Plate lysis assay; assay type: cell-based
Method: as §1, §2

S. aureus Tanji 26 = assay: Plate lysis assay; assay type: cell-based; details: 100 pmoles and 2-fold serial dilutions spotted on bacterial lawns
Method: as §1, §2

S. aureus NRS 382 = assay: Plate lysis assay; assay type: cell-based; details: S. aureus NRS 382 (MRSA); 100 pmoles and 2-fold serial dilutions spotted on bacterial lawns
Method: as §1, §2

S. simulans = assay: Plate lysis assay; assay type: cell-based
Method: as §1, §2

MRSA strain NRS382 = assay: Control of systemic MRSA infection in a murine model; assay type: in vivo, Balb/c mice
S. aureus Newman cells [2] = assay: Zymogram with S. aureus Newman cells embedded in the gel; assay type: cell-based; details: 5 μg protein
Method: All purified proteins were analyzed with 15% SDS-PAGE, using a Kaleidoscope Precision Plus Protein Standard (BioRad, Hercules, Calif.). For zymograms, a 300 mL culture volume equivalent of live mid-log phase (OD600nm=0.4-0.6) cells of S. aureus strain Newman was embedded in the gel during polymerization. The protein samples were boiled in Laemmli sample buffer (BioRad) with β-mercaptoethanol, and electrophoresed with identical buffers and voltage for one hour in both the SDS-PAGE and the zymogram using a Mini-Protean TETRA gel system (BioRad). SDS gels were Coomassie stained and zymograms were washed in excess water and further incubated in deionized water for 60 min, followed by incubation in 10 mM Tris, pH 8.0 with 150 mM or 300 mM NaCl for 80 min. Areas of clearing in the turbid zymogram gel indicate a lytic protein in the gel.

[3] = system: staphylococcal strains (MRSA strains, mastitis isolates, coagulase negative staphylococci); assay: Plate lysis assay, whole set of strains; assay type: cell-based, Staphylococcus; details: 100 to 3.125 pmoles spotted
Method: as §1, §2

[4] = 100 pmoles and 2-fold serial dilutions spotted on bacterial lawns

B1: ΦSH2 full length: Full length C-terminally 6×His-tagged Staphylococcus haemolyticus φSH2 prophage endolysin (1-493), SEQ ID NO:2 (protein)
chain: MKTQAEINKRLDAYRKGTVDSPYRVKVWTSYDNRFYPMEPGCIDVDKSFHAQCADLTIDYILWLTDNEFRIRGNAKDAINPKKNKLPEGWKIVLNRPSTVPRKGWIAVFTDGTYWEYGHIGMVYDGGNTSRFQILEQNWNGWANKKPSLRWDNYYGLTHFIVPPVAKENKAVSSSKQQAPKQKVKKASTKKALPKITKHITGYNMDKRGYNPKGVVLHNDAGGMNYKQYYNNLVNANYDRLARGIAHAYVDRTGIWEAIDESRIAWHVADGTRPGSGNHDFYGIEVNQSLRASDKEFLENEQAVFQFAAEKLKKWGLPANRNTVRLHNEFSQTSCPHRSMVLHTGLDPLYHSITEHARLKLKDYFIKQIRAYMDGKKPTSKVVVSKPGSASTPATRKDANGYRENPHGTLYKEEHATFTANANIITRYVGPFTNMPQAGILKAGQTIIYDEVMKQDGYIWVGYTAYNGKRVYLPVRKWNRETDSVGKLWGVISLEHHHHHH
modifications: C-terminal 6xHis tag; Bacteriophage Phi SH2
S. aureus Newman cells [1]; 1 μM protein, 10 mM Tris pH 7.5, NaCl 0-600 mM
  NaCl concentration of optimum lytic activity: 300 mM
S. aureus Newman cells [1]; 1 μM protein, different NaCl concentrations
  lytic activity in turbidity reduction assays (in words): moderate lytic activity
S. aureus Newman cells [1]; 10 mM CaCl2, relative to 0 mM, 10 mM Tris, 200 mM NaCl, pH 7.5
  increase of lytic activity by Ca2+: three-fold
S. aureus Newman cells [1]; 0.1-10 mM MgCl2, 10 mM Tris, 200 mM NaCl, pH 7.5
  effect of Mg2+ on lytic activity: not significantly alter
S. aureus Newman cells [1]; 0.1-10 mM MnCl2, 10 mM Tris, 200 mM NaCl, pH 7.5
  effect of Mn2+ on lytic activity: slightly inhibitory effect
S. aureus Tanji 19
  Lytic activity (lowest amount of protein producing a lysis zone): ++ (++: 50 pmoles)
S. aureus NRS 385
  Lytic activity (lowest amount of protein producing a lysis zone): − (‘−’ means that no lysis was observed at the highest amount tested (100 pmoles))
S. aureus Tanji 1
  Lytic activity (lowest amount of protein producing a lysis zone): ++ (++: 50 pmoles)
S. chromogenes
  Lytic activity (lowest amount of protein producing a lysis zone): +++ (+++: 25 pmoles)
S. epidermidis
  Lytic activity (lowest amount of protein producing a lysis zone): − (‘−’ means that no lysis was observed at the highest amount tested (100 pmoles))
S. xylocus
  Lytic activity (lowest amount of protein producing a lysis zone): +++ (+++: 25 pmoles)
S. aureus 305
  Lytic activity (lowest amount of protein producing a lysis zone): ++ (++: 50 pmoles)
S. aureus Tanji 20
  Lytic activity (lowest amount of protein producing a lysis zone): ++ (++: 50 pmoles)
S. hyicus; [4]
  Lytic activity (lowest amount of protein producing a lysis zone): ++++++ (++++++: ≦3.125 pmoles)
S. hyicus; 100 to 3.125 pmoles spotted
  amount of protein causing a lysis zone: lowest amount tested
S. warneri
  Lytic activity (lowest amount of protein producing a lysis zone): +++ (+++: 25 pmoles)
S. aureus NRS 384
  Lytic activity (lowest amount of protein producing a lysis zone): + (+: 100 pmoles)
S. aureus NRS 383
  Lytic activity (lowest amount of protein producing a lysis zone): − (‘−’ means that no lysis was observed at the highest amount tested (100 pmoles))
S. aureus Newman; [4]
  Lytic activity (lowest amount of protein producing a lysis zone): − (‘−’ means that no lysis was observed at the highest amount tested (100 pmoles))
S. aureus Newman; 100 to 3.125 pmoles spotted
  amount of protein causing a lysis zone: not lysed by the highest amount
S. aureus Tanji 26
  Lytic activity (lowest amount of protein producing a lysis zone): + (+: 100 pmoles)
S. aureus NRS 382
  Lytic activity (lowest amount of protein producing a lysis zone): − (‘−’ means that no lysis was observed at the highest amount tested (100 pmoles))
S. simulans; [4]
  Lytic activity (lowest amount of protein producing a lysis zone): + (+: 100 pmoles)
S. simulans; 100 to 3.125 pmoles spotted
  amount of protein causing a lysis zone: 100 pmol
MRSA strain NRS382; 0 hours, mice infected i.p. with MRSA NRS382, treated 30 min post infection (φSH2 200 μg/mouse i.p.; Vancomycin 375 μg/mouse s.c.; Oxacillin 1250 μg/mouse s.c.)
  % Survival: 100%
MRSA strain NRS382; 4 hours, same infection and treatment
  % Survival: 100%
MRSA strain NRS382; 8 hours, same infection and treatment
  % Survival: 100%
MRSA strain NRS382; 12 hours, same infection and treatment
  % Survival: 100%
MRSA strain NRS382; 16 hours, same infection and treatment
  % Survival: 100%
MRSA strain NRS382; 20 hours, same infection and treatment
  % Survival: 100%
MRSA strain NRS382; 24 hours, same infection and treatment
  % Survival: 100%
MRSA strain NRS382; 28 hours, same infection and treatment
  % Survival: 100%
MRSA strain NRS382; 32 hours, same infection and treatment
  % Survival: 100%
MRSA strain NRS382; 36 hours, same infection and treatment
  % Survival: 100%
MRSA strain NRS382; 40 hours, same infection and treatment
  % Survival: 100%
MRSA strain NRS382; 44 hours, same infection and treatment
  % Survival: 100%
MRSA strain NRS382; 48 hours (end of the experiment), same infection and treatment
  % Survival: 100%
S. aureus Newman cells [2]; after incubation in deionized water for 60 min
  lysis in zymogram: faint zones of lysis
S. aureus Newman cells [2]; water 60 min, then 10 mM Tris, 150 mM NaCl, pH 8.0 up to 80 min
  lysis in zymogram: considerably weaker
S. aureus Newman cells [2]; water 60 min, then 10 mM Tris, 300 mM NaCl, pH 8.0 for 80 min
  lysis in zymogram: pronounced lytic band
[3]; 16 strains tested
  strains against which lytic activity was displayed: 11 out of 16
[3]; four MRSA strains (NRS 382-385)
  MRSA strains lysed: one out of four
